Source: paper PMC6547806

Target: Angiomotin (Amot80) coiled-coil homology (ACCH) domain, wild type
Assay: SEC

stoichiometry N: 4
Substance: Angiomotin (Amot80) coiled-coil homology (ACCH) domain, wild type (domain or fragment)
